Assay results: patent publication US20110166032A1, “Design and Use of Sortilin Specific Molecular Imaging Ligands” (H. LUNDBECK A/S, priority 2008, published 2011)
No end group written: not given here.

T1: immobilized sSortilin (Homo sapiens, UniProt Q99523)
T1 construct: His6 (C); made in house; host or cells: CHO-K1
T1 sequence (Q99523 78-755): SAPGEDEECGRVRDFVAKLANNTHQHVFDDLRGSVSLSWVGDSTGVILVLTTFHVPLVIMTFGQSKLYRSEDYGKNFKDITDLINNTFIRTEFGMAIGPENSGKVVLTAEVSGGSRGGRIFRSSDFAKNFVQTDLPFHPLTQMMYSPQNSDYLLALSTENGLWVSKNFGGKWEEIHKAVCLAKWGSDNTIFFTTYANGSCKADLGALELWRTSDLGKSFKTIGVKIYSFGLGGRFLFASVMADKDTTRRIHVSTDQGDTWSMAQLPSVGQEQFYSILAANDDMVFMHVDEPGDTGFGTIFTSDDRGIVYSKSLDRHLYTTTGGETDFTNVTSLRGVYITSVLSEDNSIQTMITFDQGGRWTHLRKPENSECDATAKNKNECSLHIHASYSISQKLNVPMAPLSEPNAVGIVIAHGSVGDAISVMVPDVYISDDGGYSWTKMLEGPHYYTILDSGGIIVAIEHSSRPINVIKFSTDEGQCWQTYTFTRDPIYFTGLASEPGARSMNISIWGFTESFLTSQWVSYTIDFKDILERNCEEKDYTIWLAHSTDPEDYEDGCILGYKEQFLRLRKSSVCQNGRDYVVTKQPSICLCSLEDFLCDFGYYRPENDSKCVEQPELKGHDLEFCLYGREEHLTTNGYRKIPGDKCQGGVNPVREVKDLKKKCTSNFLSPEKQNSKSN

T2: sSortilin S316E mutant (Homo sapiens, UniProt Q99523, S316E)
T2 construct: His6 (C); made in house; host or cells: CHO cells
T2 sequence (Q99523 78-755 S316E): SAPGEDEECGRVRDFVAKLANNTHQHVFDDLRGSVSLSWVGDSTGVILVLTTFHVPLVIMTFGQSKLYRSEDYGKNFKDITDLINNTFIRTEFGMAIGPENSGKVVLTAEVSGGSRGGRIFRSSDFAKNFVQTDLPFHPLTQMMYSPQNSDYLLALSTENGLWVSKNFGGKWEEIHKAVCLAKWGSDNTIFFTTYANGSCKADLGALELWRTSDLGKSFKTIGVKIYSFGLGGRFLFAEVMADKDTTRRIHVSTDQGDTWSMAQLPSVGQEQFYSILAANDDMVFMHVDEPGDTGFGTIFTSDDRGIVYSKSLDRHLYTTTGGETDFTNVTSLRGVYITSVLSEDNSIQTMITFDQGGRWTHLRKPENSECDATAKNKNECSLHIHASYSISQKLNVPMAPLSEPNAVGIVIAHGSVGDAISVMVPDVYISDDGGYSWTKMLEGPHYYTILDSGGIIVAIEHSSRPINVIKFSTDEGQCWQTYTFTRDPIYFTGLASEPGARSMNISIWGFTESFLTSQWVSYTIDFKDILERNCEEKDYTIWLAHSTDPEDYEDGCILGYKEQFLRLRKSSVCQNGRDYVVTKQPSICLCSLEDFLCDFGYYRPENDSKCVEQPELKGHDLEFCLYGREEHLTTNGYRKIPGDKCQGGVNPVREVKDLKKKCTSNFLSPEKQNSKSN

T3: sSortilin S316E mutant (human, UniProt Q99523 78-755)
T3 construct: those of wt sSortilin are used
T3 sequence: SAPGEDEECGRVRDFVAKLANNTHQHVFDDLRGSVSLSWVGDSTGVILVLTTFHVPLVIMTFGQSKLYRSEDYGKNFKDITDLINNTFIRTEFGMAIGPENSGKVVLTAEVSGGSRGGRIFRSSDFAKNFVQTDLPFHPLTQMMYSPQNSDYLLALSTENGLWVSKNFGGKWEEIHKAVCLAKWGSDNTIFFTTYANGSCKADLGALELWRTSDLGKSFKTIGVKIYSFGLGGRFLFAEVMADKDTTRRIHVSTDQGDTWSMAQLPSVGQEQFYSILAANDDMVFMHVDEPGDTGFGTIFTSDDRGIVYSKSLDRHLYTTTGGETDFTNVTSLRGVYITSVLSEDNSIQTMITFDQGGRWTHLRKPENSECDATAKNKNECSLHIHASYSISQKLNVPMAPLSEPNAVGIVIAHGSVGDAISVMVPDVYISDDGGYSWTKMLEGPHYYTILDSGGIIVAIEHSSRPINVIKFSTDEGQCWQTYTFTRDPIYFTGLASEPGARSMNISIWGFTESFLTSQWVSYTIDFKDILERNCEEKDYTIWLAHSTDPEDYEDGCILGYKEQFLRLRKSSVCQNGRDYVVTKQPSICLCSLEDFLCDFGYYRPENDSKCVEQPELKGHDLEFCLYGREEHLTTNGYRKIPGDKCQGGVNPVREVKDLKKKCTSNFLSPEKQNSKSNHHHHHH

T4: Soluble Sortilin (sSortilin), luminal domain of human Sortilin fused C-terminally to His6 (human, UniProt Q99523 78-755)
T4 construct: Expressed in CHO-K1 cells; 1; also called wtSortilin; wt sSortilin
T4 sequence: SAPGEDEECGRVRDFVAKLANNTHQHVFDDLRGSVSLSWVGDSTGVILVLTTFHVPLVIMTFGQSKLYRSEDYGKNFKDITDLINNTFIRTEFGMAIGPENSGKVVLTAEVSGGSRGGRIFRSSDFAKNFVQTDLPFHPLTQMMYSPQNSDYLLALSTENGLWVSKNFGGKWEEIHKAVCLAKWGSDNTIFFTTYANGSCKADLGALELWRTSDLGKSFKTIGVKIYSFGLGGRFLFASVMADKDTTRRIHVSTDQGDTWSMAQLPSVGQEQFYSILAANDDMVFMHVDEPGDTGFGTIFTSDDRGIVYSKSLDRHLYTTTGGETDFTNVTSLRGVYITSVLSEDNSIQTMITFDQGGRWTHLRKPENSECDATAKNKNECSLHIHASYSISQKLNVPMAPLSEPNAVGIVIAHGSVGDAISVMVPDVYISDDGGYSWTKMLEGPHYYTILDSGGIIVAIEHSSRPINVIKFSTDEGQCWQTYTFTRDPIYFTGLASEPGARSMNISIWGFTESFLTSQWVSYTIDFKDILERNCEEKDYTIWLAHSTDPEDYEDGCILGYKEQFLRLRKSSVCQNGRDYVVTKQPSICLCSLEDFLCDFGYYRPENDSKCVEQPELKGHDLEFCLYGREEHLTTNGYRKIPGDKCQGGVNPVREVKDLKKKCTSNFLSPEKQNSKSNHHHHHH

B1: GST-tagged Sortilin propeptide (GST-Sort-pro) (other)
chain: QDRLDAPPPPAAPLPRWSGPIGVSWGLRAAAAGGAFPRGGRWRR
modifications: also: fused to GST, order and linker not given here
notes: the construct is 'as previously described (5)'; also called Sortilin propeptide fused to GST; not shown: glutathione S-transferase (GST) tag
B2: propeptide of Nerve Growth Factor (NGFpro), E. coli expressed, His6 tag removed by TEV (ligand)
chain: EPHSESNVPAGHTIPQVHWTKLQHSLDTALRRARSAPAAAIAARVAGQTRNITVDPRLFKKRRLRSPRVLFSTQPPREAADTQDLDFEVGGAAPFNRTHRSKR
notes: also called NGF propeptide; pro-domain of Nerve Growth Factor
B3: NGFpro: propeptide of Nerve Growth Factor, amino acid residues 19 to 121 of SEQ ID NO 6 (protein)
chain: EPHSESNVPAGHTIPQVHWTKLQHSLDTALRRARSAPAAAIAARVAGQTRNITVDPRLFKKRRLRSPRVLFSTQPPREAADTQDLDFEVGGAAPFNRTHRSKR
modifications: left off: a dimerising Fc or GST
B4: BDNF: Mature BDNF (SEQ ID NO. 7) purchased from R&D Systems (protein, listed as Homo sapiens)
chain: MTILFLTMVISYFGCMKAAPMKEANIRGQGGLAYPGVRTHGTLESVNGPKAGSGLTSLADTFEHVIEELLDEDQKVRPNEENNKDADLYTSRVMLSSQVPLEPPLLFLLEEYKNYLDAANMSMRVRRHSDPARRGELSVCDSISEWVTAADKKTAVDMSGGTVTVLEKVPVSKGQLKQYFYETKCNPMGYTKEGCRGIDKRHWNSQCRTTQSYVRALTMDSKKRIGWRFIRIDTSCVCTLTIKRGR
modifications: SIGNAL (1)..(18) Signal peptide of BDNF

Columns and labels:
immobilized sSortilin = target: T1, immobilized sSortilin; assay: Surface plasmon resonance: inhibition of ligand binding to immobilized sSortilin by Neurotensin derived peptides; details: for inhibition of Sortilin's binding of its own propeptide (Sort-pro): GST-Sort-pro binding to immobilized sSortilin, FIG. 3A+B
Experimental: (§1) Surface plasmon resonance (SPR) measurements were performed on a BIAcore 2000 instrument (Biacore Sweden) equipped with CM5 sensor chips maintained at 20° C. A continuous flow of HBS buffer (10 mM HEPES pH 7.4, 3.4 mM EDTA, 150 mM NaCl, 0.005% surfactant P20) passing over the sensor surface was maintained at 5 μl/min. […] A sortilin solution (320 μl, 5 μg/ml in 10 mM sodium acetate pH 4.0) was then injected over flow cells 1 and 2 at a flow rate of 15 μl/min. Remaining binding sites in all three flow cells were blocked by injection (5 μl/min) of 70 μl of 1 M ethanolamine pH 8.5. […] Screening of the samples was performed by injecting aliquots of 50 μl, at concentrations of 0.1-8 μM, through all flow cells with a flow rate of 5 μl/min. Unless otherwise stated, the samples were dissolved in 10 mM HEPES pH 7.4, 150 mM NaCl, 1.5 mM CaCl2, 1 mM EGTA, 0.005% surfactant P20. Sample buffer was also used as running buffer. The BIAcore response is expressed in relative response units (RU), i.e. the difference in response between the immobilized protein flow cell and the corresponding control flow cell (activated and blocked but without protein). Regeneration of the sensor chip after each cycle of analysis was performed by injecting 20 μl of 10 mM glycine/HCl pH 4.0, 500 mM NaCl, 20 mM EDTA and 0.005% surfactant P20. For calciumfree conditions, HBS containing 20 mM EDTA was used as sample as well as running buffer.

sSortilin S316E mutant [1] = target: T2, sSortilin S316E mutant; assay: Surface plasmon resonance: ligand binding to purified S316E mutant sSortilin compared with wt sSortilin; details: compared with wtSortilin, SPR
Experimental: as §1

sSortilin S316E mutant [2] = target: T3, sSortilin S316E mutant; assay: SPR, immobilised S316E sSortilin
Experimental: as §1, with “For calciumfree conditions, HBS containing 20 mM EDTA was used as sample as well as running buffer.” left out

[3] = target: T4, Soluble Sortilin (sSortilin), luminal …; assay: SPR (BIAcore 3000), immobilised sSortilin
Experimental: All measurements were performed on a BIAcore 3000 instrument (Biacore Sweden) maintained at 20° C. A continuous flow of buffer F (10 mM HEPES pH=7.4, 150 mM (NH₄)₂SO₄, 1.5 mM CaCl₂, 1.5 mM EGTA and 0.005% Tween-20) was passed over the CM5 chip sensor surface at 5 μl/min.

Row | Molecule | inhibition of Sortilin's binding of its own propeptide (Sort-pro) (immobilized sSortilin; SPR) | binding to S316E mutant sSortilin (sSortilin S316E mutant [1]) | other results
1 | Arg8-Arg-Pro-Tyr-Ile-Leu13-NH2 [reference compound] | fails to inhibit | – | –
2 | Arg9-Pro-Tyr-Ile-Leu13 [reference compound] | equally effective | – | –
3 | Sort-pro: Sortilin's own propeptide (amino acid residues 34-77 of SEQ ID NO. 1), used fused to GST (QDRLDAPPPPAAPLPRWSGPIGVSWGLRAAAAGGAFPRGGRWRR; also: fused to GST) | – | no binding | –
4 | Tyr-Ile-Leu [Tyr11-Ile-Leu13] | full inhibition | – | affinity for Sortilin (summary statement) (immobilized sSortilin): high affinity; inhibition of binding of the prodomain of NGF to sSortilin (immobilized sSortilin; GST-tagged propeptide of NGF, SPR, FIG. 3C): hampers binding; inhibition of binding of RAP to sSortilin (immobilized sSortilin; SPR, FIG. 3D): hampers binding
5 | B1 | – | – | binding result (sSortilin S316E mutant [2]): no binding
6 | B2 | – | – | Kd [3]: ~10 nM
7 | B3 | – | did bind | –
8 | B4 | – | did bind | –
